Experimental data published in publication PMC6363478.

Target: rat EMILIN1 C-terminus fusion protein in pRSET-A (REM) (rat)
Assay: SPR

rat organ of Corti CNGA3 C-terminus fusion protein in pRSET-A (RA3-C) (domain or fragment)
Kd: 270 nM
